Here are results for six substances from PMC6606807.

As usually defined, the stoichiometry N is the number of molecules, sites or subunits per partner or assembly.

For test [1], the target named is PGT145 (human IgG1), as the ligand of CD16. As to the kind of experiment: flow cytometry on cells. Particulars: read off a plot; for other: Binding (AUC): area under the PGT145 staining curve, parent: est. 12000; for response: parent: est. 540. (Flow cytometry measures light scatter and fluorescence of single cells or particles in a stream.)
Test [2] deals with soluble SIVmac239 Env SOSIP.664 trimer, wild type (SIVmac239). As to the kind of experiment: cryo-EM 2-D class averages; SIVmac239 Env trimers affinity purified with PGT145, ~6 mg/ml diluted 3:1 into n-dodecyl-beta-D-maltoside, plunge frozen; ~62,000 particles.

With SIVmac239 Env WT N171Q, in test [1], the other: Binding (AUC) was determined as 740 and the response came to 220 gMFI.

SIVmac239 Env WT K179S: in test [1], the other: Binding (AUC) stood at 46000 and the response is 1500 gMFI.

Turning to SIVmac239 Env WT K180S, in test [1], the other: Binding (AUC) is 260000 and the response was found to be 6600 gMFI.

As for SIVmac239 Env WT K181S, in test [1], the other: Binding (AUC) was determined as 11000 and the response is 450 gMFI.

In the case of SIVmac239 Env WT R177A, in test [1], the other: Binding (AUC) is 1300 and the response stood at 180 gMFI.

“soluble SIVmac239 Env SOSIP.664 trimer, wild type (complex)”: the stoichiometry N in test [2] was 3.
